Laboratory results taken from article PMC12990809.

Key:
Test in all cases: pulldown
[1] = system: T1, PK27602.1 (Cannabis sativa); settings: 20 nM protein, 1.5 uM RNA pool; 20 mM HEPES pH 7.8, 70 mM KCl, 10 mM NaCl, 10% glycerol, 2 mM DTT, 0.1 ug/uL BSA; 30 min, 4 C
T1 sequence: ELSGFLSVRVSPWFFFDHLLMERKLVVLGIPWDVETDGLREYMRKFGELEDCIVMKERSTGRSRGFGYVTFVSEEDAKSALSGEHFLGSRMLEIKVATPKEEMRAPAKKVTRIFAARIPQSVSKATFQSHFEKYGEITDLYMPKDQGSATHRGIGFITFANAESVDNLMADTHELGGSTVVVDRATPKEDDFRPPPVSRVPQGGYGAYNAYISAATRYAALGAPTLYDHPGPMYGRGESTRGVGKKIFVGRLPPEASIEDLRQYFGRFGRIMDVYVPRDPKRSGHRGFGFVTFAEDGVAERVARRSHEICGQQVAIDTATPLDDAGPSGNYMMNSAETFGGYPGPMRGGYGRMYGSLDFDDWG

[2] = molecular target: T2, nrd1 (Schizosaccharomyces pombe) (UniProt Q09702); settings: 20 nM protein, 1.5 uM RNA pool; 20 mM HEPES pH 7.8, 70 mM KCl, 10 mM NaCl, 10% glycerol, 2 mM DTT, 0.1 ug/uL BSA; 30 min, 4 C
T2 sequence: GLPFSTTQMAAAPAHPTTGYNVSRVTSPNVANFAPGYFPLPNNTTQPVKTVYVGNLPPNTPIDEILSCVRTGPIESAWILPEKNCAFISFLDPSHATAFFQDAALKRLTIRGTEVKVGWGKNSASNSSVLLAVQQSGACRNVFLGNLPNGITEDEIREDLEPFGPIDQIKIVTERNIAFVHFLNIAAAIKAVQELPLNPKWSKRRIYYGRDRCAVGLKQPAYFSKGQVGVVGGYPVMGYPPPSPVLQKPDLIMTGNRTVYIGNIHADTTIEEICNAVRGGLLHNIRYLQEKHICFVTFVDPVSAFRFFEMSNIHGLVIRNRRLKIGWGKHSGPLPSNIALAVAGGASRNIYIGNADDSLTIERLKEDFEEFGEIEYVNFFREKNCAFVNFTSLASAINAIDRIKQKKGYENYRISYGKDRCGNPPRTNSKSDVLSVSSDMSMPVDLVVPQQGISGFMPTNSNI

HNRNPC (Homo sapiens) = HNRNPC (Homo sapiens) (UniProt P07910); settings: 20 nM protein, 1.5 uM RNA pool; 20 mM HEPES pH 7.8, 70 mM KCl, 10 mM NaCl, 10% glycerol, 2 mM DTT, 0.1 ug/uL BSA; 30 min, 4 C (protocol of this paper; not …); cited from earlier work
[3] = molecular target: T3, cwf2 (Schizosaccharomyces pombe) (UniProt P87126); settings: 20 nM protein, 1.5 uM RNA pool; 20 mM HEPES pH 7.8, 70 mM KCl, 10 mM NaCl, 10% glycerol, 2 mM DTT, 0.1 ug/uL BSA; 30 min, 4 C
T3 sequence: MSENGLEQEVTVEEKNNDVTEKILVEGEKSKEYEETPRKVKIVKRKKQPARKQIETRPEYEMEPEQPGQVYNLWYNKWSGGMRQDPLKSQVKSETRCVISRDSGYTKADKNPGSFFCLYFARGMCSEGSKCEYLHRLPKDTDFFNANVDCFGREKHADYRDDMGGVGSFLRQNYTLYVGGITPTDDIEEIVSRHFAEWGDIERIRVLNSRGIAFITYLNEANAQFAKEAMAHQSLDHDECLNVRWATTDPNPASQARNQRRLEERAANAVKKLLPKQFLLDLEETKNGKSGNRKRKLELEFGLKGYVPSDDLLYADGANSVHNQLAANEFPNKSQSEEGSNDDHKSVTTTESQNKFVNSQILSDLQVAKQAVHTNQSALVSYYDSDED

[4] = molecular target: T4, PK11774.1 (Cannabis sativa) (UniProt A0A7J6FQM5); settings: 20 nM protein, 1.5 uM RNA pool; 20 mM HEPES pH 7.8, 70 mM KCl, 10 mM NaCl, 10% glycerol, 2 mM DTT, 0.1 ug/uL BSA; 30 min, 4 C
T4 sequence: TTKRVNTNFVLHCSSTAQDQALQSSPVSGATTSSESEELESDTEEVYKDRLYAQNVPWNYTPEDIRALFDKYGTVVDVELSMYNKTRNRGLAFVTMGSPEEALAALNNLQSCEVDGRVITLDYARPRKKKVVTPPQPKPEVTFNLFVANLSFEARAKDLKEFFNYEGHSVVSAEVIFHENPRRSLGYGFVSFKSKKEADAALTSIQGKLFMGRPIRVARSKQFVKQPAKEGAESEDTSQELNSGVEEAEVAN

[5] = molecular target: T5, SRSF3 (Tetraodon nigroviridis) (UniProt H3C295); settings: 20 nM protein, 1.5 uM RNA pool; 20 mM HEPES pH 7.8, 70 mM KCl, 10 mM NaCl, 10% glycerol, 2 mM DTT, 0.1 ug/uL BSA; 30 min, 4 C
T5 sequence: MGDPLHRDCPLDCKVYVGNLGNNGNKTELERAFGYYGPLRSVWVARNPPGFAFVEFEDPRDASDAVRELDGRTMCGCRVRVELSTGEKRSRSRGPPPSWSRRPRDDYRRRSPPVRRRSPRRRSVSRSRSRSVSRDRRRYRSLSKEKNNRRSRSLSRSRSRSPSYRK

u2af2b (Danio rerio) = u2af2b (Danio rerio) (UniProt A0ACM8Q3Q6); settings: 20 nM protein, 1.5 uM RNA pool; 20 mM HEPES pH 7.8, 70 mM KCl, 10 mM NaCl, 10% glycerol, 2 mM DTT, 0.1 ug/uL BSA; 30 min, 4 C
[6] = molecular target: T6, mei2 (Schizosaccharomyces pombe) (UniProt P08965); settings: 20 nM protein, 1.5 uM RNA pool; 20 mM HEPES pH 7.8, 70 mM KCl, 10 mM NaCl, 10% glycerol, 2 mM DTT, 0.1 ug/uL BSA; 30 min, 4 C
T6 sequence: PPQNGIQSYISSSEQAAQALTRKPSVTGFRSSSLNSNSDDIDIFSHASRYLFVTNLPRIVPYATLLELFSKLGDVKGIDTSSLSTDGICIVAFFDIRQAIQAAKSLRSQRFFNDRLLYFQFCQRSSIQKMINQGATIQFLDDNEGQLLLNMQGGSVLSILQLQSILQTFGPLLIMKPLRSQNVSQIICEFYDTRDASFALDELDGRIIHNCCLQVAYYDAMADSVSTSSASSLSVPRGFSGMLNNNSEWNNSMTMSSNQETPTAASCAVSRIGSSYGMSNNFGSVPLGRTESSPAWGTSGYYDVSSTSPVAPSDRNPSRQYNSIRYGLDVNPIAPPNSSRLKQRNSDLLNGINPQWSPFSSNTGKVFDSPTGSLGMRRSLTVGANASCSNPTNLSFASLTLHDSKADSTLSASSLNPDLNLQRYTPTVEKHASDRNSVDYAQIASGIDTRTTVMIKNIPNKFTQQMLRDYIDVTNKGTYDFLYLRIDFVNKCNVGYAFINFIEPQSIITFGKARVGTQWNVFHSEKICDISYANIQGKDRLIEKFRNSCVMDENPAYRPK

[7] = molecular target: SNRPB2 (Meleagris gallopavo) (UniProt G1N364); settings: 20 nM protein, 1.5 uM RNA pool; 20 mM HEPES pH 7.8, 70 mM KCl, 10 mM NaCl, 10% glycerol, 2 mM DTT, 0.1 ug/uL BSA; 30 min, 4 C
Sequence of SNRPB2 (Meleagris gallopavo) (G1N364 entry or part of it): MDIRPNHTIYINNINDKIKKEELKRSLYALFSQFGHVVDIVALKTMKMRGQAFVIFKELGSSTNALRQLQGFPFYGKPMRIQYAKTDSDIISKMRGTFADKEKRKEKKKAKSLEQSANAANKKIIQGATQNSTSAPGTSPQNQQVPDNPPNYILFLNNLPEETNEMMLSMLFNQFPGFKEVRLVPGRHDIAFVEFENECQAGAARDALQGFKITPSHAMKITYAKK

Sequence of u2af2b (Danio rerio) (A0ACM8Q3Q6 entry or part of it): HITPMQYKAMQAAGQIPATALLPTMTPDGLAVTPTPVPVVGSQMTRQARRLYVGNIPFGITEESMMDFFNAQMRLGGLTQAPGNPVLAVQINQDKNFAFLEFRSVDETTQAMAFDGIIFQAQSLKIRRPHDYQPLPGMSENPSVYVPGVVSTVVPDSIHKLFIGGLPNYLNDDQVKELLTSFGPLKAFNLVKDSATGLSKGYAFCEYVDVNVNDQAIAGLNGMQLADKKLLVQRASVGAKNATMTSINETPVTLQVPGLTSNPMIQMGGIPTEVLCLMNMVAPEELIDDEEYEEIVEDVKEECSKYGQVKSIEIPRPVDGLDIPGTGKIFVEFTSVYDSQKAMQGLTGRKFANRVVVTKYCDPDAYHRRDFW
Sequence of HNRNPC (Homo sapiens) (P07910 1-131): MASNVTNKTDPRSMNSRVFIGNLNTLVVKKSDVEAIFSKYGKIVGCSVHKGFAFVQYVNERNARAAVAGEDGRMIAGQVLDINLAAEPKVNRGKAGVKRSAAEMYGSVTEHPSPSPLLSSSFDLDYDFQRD

GAGUGA [RNAcompete motif RNCMPT00431]
binding signal (z-score (mean of top ten 7-mers)) [1]: 12.8

UUUUUUC [RNAcompete motif RNCMPT00414]
binding signal (z-score (mean of top ten 7-mers)) [2]: 11.9

UUUUUU [RNAcompete motif RNCMPT00025]
binding signal (z-score (mean of top ten 7-mers)) (HNRNPC (Homo sapiens)): 15.8

AANUUG [RNAcompete motif RNCMPT00432]
binding signal (z-score (mean of top ten 7-mers)) [3]: 17.4

UGGAGNG [RNAcompete motif RNCMPT00403]
binding signal (z-score (mean of top ten 7-mers)) [4]: 10.9

AACAACG [RNAcompete motif RNCMPT00419]
binding signal (z-score (mean of top ten 7-mers)) [5]: 7.35

UUUUUC [RNAcompete motif RNCMPT00418]
binding signal (z-score (mean of top ten 7-mers)) (u2af2b (Danio rerio)): 14.4

UUUUUUG [RNAcompete motif RNCMPT00413]
binding signal (z-score (mean of top ten 7-mers)) [6]: 14.2

UUGCAC [RNAcompete motif RNCMPT00425]
binding signal (z-score (mean of top ten 7-mers)) [7]: 7.95
